Experimental data reported in publication PMC7104187.

Molecular target: T1, SauCas9 (Staphylococcus aureus, UniProt J7RUA5 1-1053)
T1 sequence: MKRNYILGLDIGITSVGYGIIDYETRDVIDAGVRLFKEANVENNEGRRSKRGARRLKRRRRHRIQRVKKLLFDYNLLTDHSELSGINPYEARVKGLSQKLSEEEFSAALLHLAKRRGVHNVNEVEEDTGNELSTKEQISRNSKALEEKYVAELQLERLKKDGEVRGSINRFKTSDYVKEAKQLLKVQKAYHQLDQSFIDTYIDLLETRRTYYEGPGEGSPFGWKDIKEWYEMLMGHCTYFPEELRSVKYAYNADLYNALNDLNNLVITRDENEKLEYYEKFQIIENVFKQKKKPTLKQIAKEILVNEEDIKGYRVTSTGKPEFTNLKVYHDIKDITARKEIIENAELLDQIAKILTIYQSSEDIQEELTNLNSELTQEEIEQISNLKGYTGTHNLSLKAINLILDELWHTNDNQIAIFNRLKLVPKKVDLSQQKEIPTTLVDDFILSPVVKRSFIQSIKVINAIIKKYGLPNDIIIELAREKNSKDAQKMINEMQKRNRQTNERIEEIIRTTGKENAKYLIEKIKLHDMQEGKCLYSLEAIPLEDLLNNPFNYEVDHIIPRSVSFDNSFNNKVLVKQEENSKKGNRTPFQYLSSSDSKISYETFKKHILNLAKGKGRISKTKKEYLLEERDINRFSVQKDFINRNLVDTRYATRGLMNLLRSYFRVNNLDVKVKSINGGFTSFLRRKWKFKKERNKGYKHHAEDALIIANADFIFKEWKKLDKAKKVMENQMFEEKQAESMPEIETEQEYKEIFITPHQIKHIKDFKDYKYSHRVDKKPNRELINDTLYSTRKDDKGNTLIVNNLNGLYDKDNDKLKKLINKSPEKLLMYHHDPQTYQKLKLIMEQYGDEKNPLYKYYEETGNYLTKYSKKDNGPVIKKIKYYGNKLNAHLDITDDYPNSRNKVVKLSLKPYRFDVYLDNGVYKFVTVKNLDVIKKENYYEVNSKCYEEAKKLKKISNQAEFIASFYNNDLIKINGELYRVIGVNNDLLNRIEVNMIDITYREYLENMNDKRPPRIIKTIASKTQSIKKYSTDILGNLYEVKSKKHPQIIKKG
Assay: EMSA

B1: EGFP sgRNA + target dsDNA (T) (mixed)
RNA: GCAAGGGCGAGGAGCUGUUCACGUUUUAGUACUCUGGAAACAGAAUCUACUAAAACAAGGCAAAAUGCCGUGUUUAUCUCGUCAACUUGUUGGCGAGAUUUUU
DNA 1: TGGTGAGCAAGGGCGAGGAGCTGTTCACCGGGGT
DNA 2: ACCCCGGTGAACAGCTCCTCGCCCTTGCTCACCA
B1: binds.
